From article PMC10991105

Substrate: CCCCCCCCCCCCCCCC(=O)Oc1ccc([N+](=O)[O-])cc1
Test: p-NPP hydrolysis, Lineweaver-Burk
Assay type: biochemical, Thermomyces lanuginosus
Settings: free enzyme; p-NPP 0.05-0.5 mg/mL
Source text: p-NPP hydrolysis, Lineweaver-Burk on Thermomyces lanuginosus lipase (TLLs)

B1: Thermomyces lanuginosus lipase (TLLs) (Thermomyces lanuginosus) (protein)
chain: EVSQDLFNQFNLFAQYSAAAYCGKNNDAPAGTNITCTGNACPEVEKADATFLYSFEDSGVGDVTGFLALDNTNKLIVLSFRGSRSIENWIGNLNFDLKEINDICSGCRGHDGFTSSWRSVADTLRQKVEDAVREHPDYRVVFTGHSLGGALATVAGADLRGNGYDIDVFSYGAPRVGNRAFAEFLTVQTGGTLYRITHTNDIVPRLPPREFGYSHSSPEYWIKSGTLVPVTRNDIVKIEGIDATGGNNQPNIPDIPAHLWYFGLIGTCL
notes: commercial free lipase from Novozymes
  Km: 1396 µM
  kcat: 22800 s⁻¹
